Data as given in the supplement of paper PMC10567573.

B1: TRIM43 (parent)
chain: YQEIFQQLQRSWVKMDQKSKHLKE

Variants of: B1
Assay: protein stability index of a GFP-peptide fusion (GPS, HEK-293T) (PSI 1-6); higher = more stable
Details: c terminus: a fixed tail appended
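Note: lentivirally expressed fusions sorted by FACS into six bins by GFP to DsRed ratio, PSI derived from sequencing read proportions per bin multiplied by bin number.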

| Variant | protein stability index |
| --- | --- |
| YQEIFQQLQRSVVKMDQKSKHLKE | 2.69 |
| YQEIFQQLQRSHVKMDQKSKHLKE | 2.5 |
| YQEIFQQLQRSQVKMDQKSKHLKE | 2.65 |
| YQEIFQQLQRSWVKMLQKSKHLKE | 3.47 |
| YQEIFQQLQRSWVKMEQKSKHLKE | 2.13 |
| YQEIFQQLQRSWVKMVQKSKHLKE | 1.69 |
| YQEIFQQLQRSWVKMRQKSKHLKE | 2.2 |
| YQEIFQQLQRSWVKMKQKSKHLKE | 2.35 |
| YQEIFQQLQRSWVKMPQKSKHLKE | 2.12 |
| YQEIFQQLQRSWVKMFQKSKHLKE | 3.17 |
| YQEIFQQLQRSWVKMQQKSKHLKE | 2.52 |
| YQEIFQQLQRSWVKMAQKSKHLKE | 3.13 |
| YQEIFQQLQRSWVKMHQKSKHLKE | 2.73 |
| YQEIFQQLQRSWVKMGQKSKHLKE | 1.76 |
| YQEIFQQLQRSWVKMTQKSKHLKE | 2.09 |
| YQEIFQQLQRSWVKMIQKSKHLKE | 2.51 |
| YQEIFQQLQRSWVKMNQKSKHLKE | 3.48 |
| YQEIFQQLQRSWVKMWQKSKHLKE | 2.96 |
| YQEIFQQLQRSWVKMDMKSKHLKE | 1.73 |
| YQEIFQQLQRSWVKMDIKSKHLKE | 1.73 |
| YQEIFQQLQRSWVKMDGKSKHLKE | 1.96 |
| YQEIFQQLQRSWVKMDKKSKHLKE | 2.1 |
| YQEIFQQLQRSWVKMDHKSKHLKE | 2.12 |
| YQEIFQQLQRSWVKMDLKSKHLKE | 1.92 |

| Variant | protein stability index |
| --- | --- |
| YQEIFQQLQRSWVKMDRKSKHLKE | 2.19 |
| YQEIFQQLQRSWVKMDAKSKHLKE | 2.1 |
| YQEIFQQLQRSWVKMDSKSKHLKE | 2.29 |
| YQEIFQQLQRSWVKMDVKSKHLKE | 2.17 |
| YQEIFQQLQRSWVKMDYKSKHLKE | 1.72 |
| YQEIFQQLQRSWVKMDDKSKHLKE | 2.01 |
| YQEIFQQLQRSWVKMDPKSKHLKE | 2.21 |
| YQEIFQQLQRSWVKMDTKSKHLKE | 2.62 |
| YQEIFQQLQRSWVKMDNKSKHLKE | 2.89 |
| YQEIFQQLQRSWVKMDWKSKHLKE | 1.72 |
| YQEIFQQLQRSWVKMDEKSKHLKE | 1.98 |
| YQEIFQQLQRSWVKMDCKSKHLKE | 2.05 |
| YQEIFQQLQRSWVKMDFKSKHLKE | 2.68 |
| YQEIFQQLQRSWVKTDQKSKHLKE | 2.53 |
| YQEIFQQLQRSWVKHDQKSKHLKE | 2.29 |
| YQEIFQQLQRSWVKFDQKSKHLKE | 1.99 |
| YQEIFQQLQRSWVKDDQKSKHLKE | 2.54 |
| YQEIFQQLQRSWVKKDQKSKHLKE | 2.61 |
| YQEIFQQLQRSWVKEDQKSKHLKE | 2.87 |
| YQEIFQQLQRSWVKNDQKSKHLKE | 2.59 |
| YQEIFQQLQRSWVKVDQKSKHLKE | 2.13 |
| YQEIFQQLQRSWVKYDQKSKHLKE | 2.05 |
| YQEIFQQLQRSWVKRDQKSKHLKE | 2.5 |
| YQEIFQQLQRSWVKPDQKSKHLKE | 3.15 |

| Variant | protein stability index |
| --- | --- |
| YQEIFQQLQRSWVKGDQKSKHLKE | 2.35 |
| YQEIFQQLQRSWVKCDQKSKHLKE | 2.32 |
| YQEIFQQLQRSWVKSDQKSKHLKE | 2.46 |
| YQEIFQQLQRSWVKLDQKSKHLKE | 2 |
| YQEIFQQLQRSWVKIDQKSKHLKE | 1.62 |
| YQEIFQQLQRSWVKADQKSKHLKE | 2.37 |
| YQEIFQQLQRSWVKQDQKSKHLKE | 2.3 |
| YQEIFQQLQRSWVKWDQKSKHLKE | 1.48 |
| YQEIFQQLQRSWVKMDQKSVHLKE | 1.94 |
| YQEIFQQLQRSWVKMDQKSNHLKE | 2.44 |
| YQEIFQQLQRSWVKMDQKSGHLKE | 2.31 |
| YQEIFQQLQRSWVKMDQKSSHLKE | 1.85 |
| YQEIFQQLQRSWVKMDQKSWHLKE | 2.42 |
| YQEIFQQLQRSWVKMDQKSYHLKE | 1.68 |
| YQEIFQQLQRSWVKMDQKSMHLKE | 2.24 |
| YQEIFQQLQRSWVKMDQKSIHLKE | 1.95 |
| YQEIFQQLQRSWVKMDQKSQHLKE | 2.36 |
| YQEIFQQLQRSWVKMDQKSFHLKE | 2.56 |
| YQEIFQQLQRSWVKMDQKSPHLKE | 2.48 |
| YQEIFQQLQRSWVKMDQKSRHLKE | 1.59 |
| YQEIFQQLQRSWVKMDQKSLHLKE | 1.82 |
| YQEIFQQLQRSWVKMDQKSAHLKE | 2.74 |
| YQEIFQQLQRSWVKMDQKSCHLKE | 1.76 |
| YQEIFQQLQRSWVKMDQKSHHLKE | 2.19 |

| Variant | protein stability index |
| --- | --- |
| YQEIFQQLQRSWVKMDQKSDHLKE | 2 |
| YQEIFQQLQRSWVKMDQKSEHLKE | 2.85 |
| YQEIFQQLQRSWVKMDQKSTHLKE | 1.86 |
| YQEIFQQLQRSWVKMDQSSKHLKE | 2 |
| YQEIFQQLQRSWVKMDQRSKHLKE | 2.57 |
| YQEIFQQLQRSWVKMDQQSKHLKE | 2.4 |
| YQEIFQQLQRSWVKMDQISKHLKE | 1.37 |
| YQEIFQQLQRSWVKMDQPSKHLKE | 2.1 |
| YQEIFQQLQRSWVKMDQWSKHLKE | 1.77 |
| YQEIFQQLQRSWVKMDQLSKHLKE | 2.31 |
| YQEIFQQLQRSWVKMDQVSKHLKE | 1.69 |
| YQEIFQQLQRSWVKMDQGSKHLKE | 2.4 |
| YQEIFQQLQRSWVKMDQASKHLKE | 2.4 |
| YQEIFQQLQRSWVKMDQTSKHLKE | 2.71 |
| YQEIFQQLQRSWVKMDQMSKHLKE | 1.64 |
| YQEIFQQLQRSWVKMDQCSKHLKE | 1.94 |
| YQEIFQQLQRSWVKMDQHSKHLKE | 2.04 |
| YQEIFQQLQRSWVKMDQYSKHLKE | 1.86 |
| YQEIFQQLQRSWVKMDQESKHLKE | 2.46 |
| YQEIFQQLQRSWVKMDQDSKHLKE | 2.87 |
| YQEIFQQLQRSWVKMDQNSKHLKE | 2.34 |
| YQEIFQQLQRSWVKMDQFSKHLKE | 1.44 |
